Experimental findings from patent US20170066836A1 (NATIONAL UNIVERSITY CORPORATION KOCHI UNIVERSITY, published 2017) are described below.

Test [1] deals with T1, recombinant Glypican-1 (R&D systems 4519-GP-050) (Homo sapiens (Human), UniProt P35052 24-530).
T1 construct: Bought protein
T1 sequence: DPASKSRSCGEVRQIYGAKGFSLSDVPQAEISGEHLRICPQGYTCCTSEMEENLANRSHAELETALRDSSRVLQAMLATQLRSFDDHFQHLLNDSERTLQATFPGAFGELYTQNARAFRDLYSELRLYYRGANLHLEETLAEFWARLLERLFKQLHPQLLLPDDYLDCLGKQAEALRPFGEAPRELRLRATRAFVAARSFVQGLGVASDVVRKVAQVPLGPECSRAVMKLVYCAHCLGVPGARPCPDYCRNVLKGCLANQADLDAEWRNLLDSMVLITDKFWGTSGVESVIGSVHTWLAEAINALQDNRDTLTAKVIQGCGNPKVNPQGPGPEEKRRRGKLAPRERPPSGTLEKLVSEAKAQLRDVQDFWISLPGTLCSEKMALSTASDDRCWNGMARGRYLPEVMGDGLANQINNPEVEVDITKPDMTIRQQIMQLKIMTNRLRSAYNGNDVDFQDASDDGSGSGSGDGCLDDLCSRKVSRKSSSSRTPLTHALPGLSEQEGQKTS
In words: Biacore 3000 (SPR): antibody captured on rabbit anti-mouse IgG on a CM5 chip, recombinant Glypican-1 added at various concentrations; BIAevaluation 4.1. As to the method:
Affinity analysis of an anti-Glypican-1 antibody was measured using Biacore 3000. A rabbit anti-mouse IgG polyclonal antibody of the Mouse Antibody Capture Kit was solid-phased to a CM5 sensor tip, various anti-Glypican1 antibody clones were captured, recombinant Glypican-1 (R&D systems 4519-GP-050) was added at various concentrations as a ligand, and binding and dissociation were monitored. The obtained sensorgram was analyzed using BIAevaluation 4.1 software and a KD value was calculated (FIG. 12).
For orientation: SPR reads the build-up and loss of mass on a sensor chip optically.

In test [2] the target is T2, human Glypican-3 expressed on 293 cells (pFLAG-CMV3 hGPC3) (human, UniProt P51654 25-554).
T2 construct: whole, on cells; FLAG-tagged through the vector; also called human GPC-3
T2 sequence (P51654 25-554 limits assumed): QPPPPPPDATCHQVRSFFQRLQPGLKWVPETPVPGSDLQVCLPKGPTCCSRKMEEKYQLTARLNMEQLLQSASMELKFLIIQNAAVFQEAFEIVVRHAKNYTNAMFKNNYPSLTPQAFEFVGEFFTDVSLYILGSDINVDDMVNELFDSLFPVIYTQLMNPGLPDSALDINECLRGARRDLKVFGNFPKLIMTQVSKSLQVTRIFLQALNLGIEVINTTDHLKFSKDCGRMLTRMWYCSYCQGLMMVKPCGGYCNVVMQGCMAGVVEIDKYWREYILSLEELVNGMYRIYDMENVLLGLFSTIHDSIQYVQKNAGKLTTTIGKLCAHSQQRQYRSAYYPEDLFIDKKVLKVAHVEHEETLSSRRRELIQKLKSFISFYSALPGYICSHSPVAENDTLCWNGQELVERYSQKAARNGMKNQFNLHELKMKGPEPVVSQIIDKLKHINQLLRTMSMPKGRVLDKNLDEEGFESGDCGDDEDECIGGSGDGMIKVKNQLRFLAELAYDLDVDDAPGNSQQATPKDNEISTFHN
In words: FACS on 293 cells transfected with pFLAG-CMV3 hGPC3. As to the method:
Subsequently, a characteristic of various anti-Glypican-1 antibodies that reacted with Glypican-1, but not with Glypican-3 was determined to prepare a chimeric protein expression vector having an amino acid sequence of the 430th or more position of Glypican-1 substituted with that of Glypican-3 (FIG. 17). Various expression vectors were transfected into the 293 cell and the reactivity with various anti-Glypican-1 antibodies was analyzed by FACS. Consequently, since the reactivity in FACS is not recognized in three clones #17(2-60), #2(1-5), and #10(1-57), it is believed that the epitope region in these clones is present in the 430th to the 530th corresponding to an extracellular region of Glypican-1 (FIG. 18).

Test [3] concerns the target T3, mouse Glypican-1 expressed on 293 cells (mouse, UniProt Q9QZF2 24-529).
T3 construct: whole, on cells; also called mouse GPC-1; mouse GPC1
T3 sequence (looked up): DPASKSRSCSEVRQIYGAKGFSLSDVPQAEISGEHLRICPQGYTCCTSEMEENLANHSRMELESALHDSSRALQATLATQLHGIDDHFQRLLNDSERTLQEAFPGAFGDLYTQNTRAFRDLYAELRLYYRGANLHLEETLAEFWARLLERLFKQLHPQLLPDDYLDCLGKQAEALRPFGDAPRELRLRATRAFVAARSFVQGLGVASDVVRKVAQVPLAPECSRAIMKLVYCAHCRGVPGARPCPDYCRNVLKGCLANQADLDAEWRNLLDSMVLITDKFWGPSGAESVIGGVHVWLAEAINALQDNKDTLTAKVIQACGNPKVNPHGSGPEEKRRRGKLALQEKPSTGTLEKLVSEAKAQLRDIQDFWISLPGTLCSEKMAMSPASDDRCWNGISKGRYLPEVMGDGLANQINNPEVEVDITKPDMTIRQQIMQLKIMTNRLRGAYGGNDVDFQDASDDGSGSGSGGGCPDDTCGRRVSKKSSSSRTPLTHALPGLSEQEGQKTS
In words: FACS on 293 cells forcibly expressing mouse GPC1. As to the method: A mouse Glypican-1 expression vector or an empty vector was transfected to the 293 cell using lipofectamine 2000 and the reactivity with various clones of an anti-Glypican-1 antibody was analyzed by FACS.

For test [4], the target named is T4, human Glypican-1 forcibly expressed on CT01 chicken T-lymphoblast-like cells (CT01-GPC-1#42) (human, UniProt P35052 24-530).
T4 sequence: T1 sequence
In words: FACS: clone as primary antibody, FITC-labeled goat anti-mouse IgG as secondary; CT01 cells forcibly expressing human Glypican-1 (CT01-GPC-1#42), Glypican-1-negative CT01 cells as negative cells. The protocol: In carrying out FACS analysis using an antibody, a chicken T-lymphoblast-like cell strain (CT01 cell) was used as a Glypican-1 negative cell and a CT01 cell (CT01-GPC-1#42) forcibly expressing human Glypican-1 was used as a Glypican-1 positive cell. Various clones of the developed antibodies were used as primary antibodies, a FITC-labeled Goat anti-Mouse IgG (H+L chain specific) (Southern Biotech) was used as a secondary antibody, measurement was carried out using FACS Cantoll (BD), and the measurement data was analyzed using Flow Jo (Tree Star). As a result, twenty types of clones were successfully developed as antibodies that can stain Glypican-1 with FACS.
A general note: A flow cytometer gives signals particle by particle.

Substitutions are numbered along the chain they refer to.

B1: anti-GPC-1 antibody 2-63 (antibody, V domains shown)
VH: AVTLDESGGGLQTPGGTLSLVCKASGFDFSSVNMFWVRQAPGKGLEFVAGIDNDATFTLYGSAVKGRASISRDNGQSTVRLQLNNLRAEDTGTYYCAKTLCSTTWGCGAYSAGDIDAWGHGTEVTVST
VL: ALTQPSSVSANPGETVKITCSGGGSSGYGYYGWYQQKSPGSAPVTVIYNNNKRPTDIPSRFSGALSGSTATLTITGVQVEDEAVYYCGSRDNTYVGIFGAGTTLTV
notes: detection was with anti-mouse IgG and the control was mouse IgG2a; also called #18; clone 2-63
In general, Kd refers to the free concentration of one partner at which half of the binding sites on the other are occupied at equilibrium, for simple one-to-one binding. For orientation: koff means the rate constant with which the complex falls apart. As a reminder, the kon is the rate constant with which the complex forms. In the case of B1, in test [1], the Kd turned out to be 6.19 nM, the koff amounted to 0.000848 s⁻¹ and the kon came out at 137000 M⁻¹ s⁻¹.

B2: anti-GPC-1 antibody 2-70 (antibody, V domains shown)
VH: AVTLDESGGGLQTPGGALSLVCKASGLSTFSDRGMHWVRQAPGKGLEFVAAISSSGRFTLYGAAVKGRATISRDNGQSTVRLQLNDLRAEDTAIYYCARGTTTGWWADAGEIDAWGHGTEVIVST
VL: ALTQPAFMSANPGETVKITCSGGSYSAYGWFQQKSPGSAPVTLIYNDNIRPSDISSRFSGSKSGSTATLTITGVQADDEAVYFCGNEDRNNTATFGAGTTLTV
notes: detection was with anti-mouse IgG and the control was mouse IgG2a; also called #19; clone 2-70
On to B2, for which the binding result in test [2] is “no binding”.

B3: anti-GPC-1 antibody 1-57 (antibody, V domains shown)
VH: AVTLDESGGGLQTPGGGLSLVCKGSGFTLTDRGMHWVRQAPGKGLEWVAAISSSGRFTLYAPAVTGRATISRDNGQSTVRLQLNNLRAEDTGTYYCARGNAGGWWADGGEIDAWGHGTEVIVST
VL: ALTQPSSVSANPGETVKITCSGGSGSYGWFQQKSPGSAPVTVIYSNNKRPTDIPSRFSGSKSGSTNTLTITGVQADDEAVYFCGSADSSYIGIFGAGTTLTV
notes: detection was with anti-mouse IgG and the control was mouse IgG2a; also called #10; clone 1-57
Take B3: the binding result in test [2] is “no binding”. Further, in test [1], the Kd was determined as 176 nM, the koff is 0.00213 s⁻¹ and the kon was determined as 12100 M⁻¹ s⁻¹. In test [3], the binding result was “binds”.

B4: anti-GPC-1 antibody 1-10 (antibody, V domains shown)
VH: AVTLDESGGGLQTPGGGLSLVCKASGFTFSGYDMMWVRQAPGKGLEWVGQISSTGSIQKYGAAVKGRATISRDNGQSTMRLQLNDLRAEDTGTYFCAKSAYGYSSSGPEDIDAWGHGTEVIVST
VL: ALTQPASVSANLGGTVKITCSGGSSDAYGWYQQKSPDSAPVTVIYGNNNRPSDIPSRFSGSTSGSTNTLTITGVQADDEAVYFCGSYDGSTDSDGIFGAGTTLTV
notes: detection was with anti-mouse IgG
Turning to B4, in test [4], the binding result is listed as “binds”.

B5: anti-GPC-1 antibody 2-60 (antibody, V domains shown)
VH: AVTLDESGGGLQTPGGALSLVCKASGFTYSSYAMGWVRQAPGKGLEFVASISSDGSDTAYGSAVKGRATISRDNRQSTLRLQLNNLRAEDTGTYYCAKSYRCSWNCWDYAAKIDAWGHGTEVTVS
VL: VALTQPASVSANPGETVKITCSGSGSYTGSYYYGWYQQKSPGSAPVTVIYNNNKRPSDIPSRFSGSTSGSTATLTITGVQAEDEAVYFCGSYDRSSDSGIFGAGTTLTV
notes: detection was with anti-mouse IgG and the control was mouse IgG2a; also called #17; clone 2-60
On to B5, for which the binding result in test [2] was “no binding”. Also, in test [1], the Kd worked out at 15.2 nM, the koff turned out to be 0.00105 s⁻¹ and the kon stood at 69100 M⁻¹ s⁻¹.

B6: anti-GPC-1 antibody 1-18 (antibody, V domains shown)
VH: AVTLDESGGGLQTPGGALSLVCKASGFTFSSYTMFWVRQAPGKGLEFVAGIDNTGIYTPYGSAVKGRATISRDNGQSTVRLQLNNLRAEDTGTYYCAKYADACTGPWCGSSAYTGSTIDAWGHGTEVTVST
VL: ALTQPSSVSANPGETVKLTCSGGGSYYGWYQQKSPGSAPVTVIYENTERPSNIPSRFSGSTSGSTSTLTIIGVQADDEAVYFCGGYDSSTDAGIFGAGTTLTV
notes: as for B4
For B6, the binding result in test [4] was “binds”.

B7: anti-GPC-1 antibody 1-28 (antibody, V domains shown)
VH: B6 VH with G16R, G115A, T128I
VL: ALTQPASVSANLGGTVEITCSGGGNDYGWYQQKSPGSAPVTVIYDSINRPSNIPSRFSGSTSGSTATLTITGVQADDEAVYFCGSYDSSYVGIFGAGTTLTV
notes: detection was with anti-mouse IgG and the control was mouse IgG2a; also called #7; clone 1-28
B7: the binding result is “no binding” in test [2] and “binds” in test [3].

B8: anti-GPC-1 antibody 1-5 (antibody, V domains shown)
VH: AVTLDESGGGLQTPGGALSLVCKASGFKFRSYDMYWVRQAPGKGLEYVAGIINTGRETYYGAAVKGRATISRDNGRSTVRLQLNNLRAEDTGTYFCAKGAAWNYAGSIDAWGHGTEVIVST
VL: ALTQPASVSANPGETVKITCSGGSGSYGWYQQKSPGSAPVTVIYGDNKRPTDISSRFSGSTSGSTNTLTITGVQAEDEAVYFCGSRDNTYAGIFGAGTTLTV
notes: detection was with anti-mouse IgG and the control was mouse IgG2a; also called #2; clone 1-5
As for B8, the binding result in test [2] was “no binding”. In test [1], the Kd amounted to 20.9 nM, the koff amounted to 0.000951 s⁻¹ and the kon was 45500 M⁻¹ s⁻¹. The binding result in test [3] was “binds”.

B9: anti-GPC-1 antibody 1-4 (antibody, V domains shown)
VH: AVTLEESGGGLQTPGGGLSLVCKASGFDFRNNGMAWVRQAPGKGLEWVAGISGTAYAVYGAAVKGRATISRDNGQSTVRLQLNNLRAEDTATYYCAKTVGSCGIDCHTTGFIDGWGHGTEVIVST
VL: ALTQPSSVSANPGETVKITCSGGSYSYGWFQQKSPGSAPVTVIYWDDERPSGIPSRFSGSKSGSTGTLTITGVQAEDEAVYFCGSRDSSYVGIFGAGTTLTV
notes: as for B4
For the molecule B9, the binding result in test [4] is on record as “binds”.

B10: anti-GPC-1 antibody 1-50 (antibody, V domains shown)
VH: AVTLDESGGGLQTPGGALSLVCKASGFTFNNNGMSWVRQAPGKGLEWVAGISGAGYSNYAPAVKGRATISRDNGQSTVRLQLNSLRAEDTGTYFCAKVASSCGNECYTSGFIDAWGHGTEVIVST
VL: ALTQPASVSANLGGTVKITCSGGSGSYGWYQQKSPGSAPVTVIFWDNERPSDIPSRFSGSKSGSTHTLTITGVQAEDEAVYFCGSRDRMYDGIFGAGTTLTV
notes: as for B4
As to B10, in test [4], the binding result is recorded as “binds”.

B11: anti-GPC-1 antibody 1-30 (antibody, V domains shown)
VH: AVTLDESGGGLQTPGGGLSLVCKASGFTLNSYDMLWVRQAPGKGLEFVAAISIASGSSYAPAVKGRATISRDNGQSTVRLQLNNLRAEDTGTYYCARGGTGYYYSDATGQIDAWGHGTEVIVST
VL: ALTQPSSVSANPGETVKITCSGGSSGYGYGWYQQKAPGSAPVTVIYSNNQRPSNIPSRFSGSTSGSTSTLTITGVQADDEAVYYCGSTDSSTYDGIFGAGTTLTV
notes: as for B4
Take B11: the binding result in test [4] is given as “binds”.
